In this assay the target is HRgpA-6H (Porphyromonas gingivalis) (UniProt P28784). As to the kind of experiment: ELISA, coated HRgpA-6H. In general terms: An ELISA detects its analyte on a solid surface through an enzyme-linked reagent.

“And” between values parts separate entries of the source, which are not always exact repeats. Equal values may be shown once.

UniProt P28784, sequence (P28784 228-860 limits assumed): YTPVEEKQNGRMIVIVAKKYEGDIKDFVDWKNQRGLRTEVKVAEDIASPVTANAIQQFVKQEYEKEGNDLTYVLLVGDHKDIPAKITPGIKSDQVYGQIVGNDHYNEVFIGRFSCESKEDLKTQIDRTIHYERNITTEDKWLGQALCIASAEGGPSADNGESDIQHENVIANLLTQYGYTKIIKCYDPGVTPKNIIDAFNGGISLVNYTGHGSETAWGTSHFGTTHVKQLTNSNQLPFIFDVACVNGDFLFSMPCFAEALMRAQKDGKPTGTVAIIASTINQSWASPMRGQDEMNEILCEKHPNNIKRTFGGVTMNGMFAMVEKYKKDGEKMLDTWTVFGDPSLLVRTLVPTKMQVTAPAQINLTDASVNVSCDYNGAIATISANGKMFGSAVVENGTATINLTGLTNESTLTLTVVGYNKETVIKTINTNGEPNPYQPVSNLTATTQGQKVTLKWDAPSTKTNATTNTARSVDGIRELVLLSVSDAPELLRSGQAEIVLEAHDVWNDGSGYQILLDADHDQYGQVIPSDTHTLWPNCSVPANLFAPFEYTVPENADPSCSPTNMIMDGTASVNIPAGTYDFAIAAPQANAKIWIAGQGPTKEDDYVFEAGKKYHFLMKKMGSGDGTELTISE

B1: KB001 mouse Fab VL T24A (Fab, V domains shown)
VH: EVQLKQSGPGLVAPSQSLSITCTVSGFSLSIYSVHWVRQPPGKGLEWLGMIWGGGSSDYNSALKSRLSISKDNSKSQVFLKMNSLQTDDTAMYYCARNGNFYAMDYWGQGTSVTVSS
VL: QIVLTQSPAIMSASLGERVTMTCAASSSVSSSFLHWYQQKPGSSPQLWIYSTSNLASGVPARFSGSGSGTSYSLTISSMEAEDAATYYCHQYHHSPYIYTFGGGTKLEIK
Take B1: the OD450 nm was 0.757 and the Ratio OD(Variant)/OD(WT) amounted to 0.984.

B2: KB001 mouse Fab VL S27L (Fab, V domains shown)
VH: EVQLKQSGPGLVAPSQSLSITCTVSGFSLSIYSVHWVRQPPGKGLEWLGMIWGGGSSDYNSALKSRLSISKDNSKSQVFLKMNSLQTDDTAMYYCARNGNFYAMDYWGQGTSVTVSS
VL: QIVLTQSPAIMSASLGERVTMTCTASLSVSSSFLHWYQQKPGSSPQLWIYSTSNLASGVPARFSGSGSGTSYSLTISSMEAEDAATYYCHQYHHSPYIYTFGGGTKLEIK
Regarding B2, the OD450 nm turned out to be 0.649 and the Ratio OD(Variant)/OD(WT) was 0.865.

B3: KB001 mouse Fab VL A25P (Fab, V domains shown)
VH: EVQLKQSGPGLVAPSQSLSITCTVSGFSLSIYSVHWVRQPPGKGLEWLGMIWGGGSSDYNSALKSRLSISKDNSKSQVFLKMNSLQTDDTAMYYCARNGNFYAMDYWGQGTSVTVSS
VL: QIVLTQSPAIMSASLGERVTMTCTPSSSVSSSFLHWYQQKPGSSPQLWIYSTSNLASGVPARFSGSGSGTSYSLTISSMEAEDAATYYCHQYHHSPYIYTFGGGTKLEIK
Turning to B3, the OD450 nm was 0.742 and 0.766 and 0.749; the Ratio OD(Variant)/OD(WT) was 0.948 and 0.978 and 0.957.

B4: KB001 mouse Fab VL S27N (Fab, V domains shown)
VH: EVQLKQSGPGLVAPSQSLSITCTVSGFSLSIYSVHWVRQPPGKGLEWLGMIWGGGSSDYNSALKSRLSISKDNSKSQVFLKMNSLQTDDTAMYYCARNGNFYAMDYWGQGTSVTVSS
VL: QIVLTQSPAIMSASLGERVTMTCTASNSVSSSFLHWYQQKPGSSPQLWIYSTSNLASGVPARFSGSGSGTSYSLTISSMEAEDAATYYCHQYHHSPYIYTFGGGTKLEIK
For the molecule B4, the OD450 nm is 0.675 and 0.724 and 0.64; the Ratio OD(Variant)/OD(WT) is 0.899 and 0.965 and 0.853.

B5: KB001 mouse Fab VL S26P (Fab, V domains shown)
VH: EVQLKQSGPGLVAPSQSLSITCTVSGFSLSIYSVHWVRQPPGKGLEWLGMIWGGGSSDYNSALKSRLSISKDNSKSQVFLKMNSLQTDDTAMYYCARNGNFYAMDYWGQGTSVTVSS
VL: QIVLTQSPAIMSASLGERVTMTCTAPSSVSSSFLHWYQQKPGSSPQLWIYSTSNLASGVPARFSGSGSGTSYSLTISSMEAEDAATYYCHQYHHSPYIYTFGGGTKLEIK
Consider B5, for which the OD450 nm is 0.644 and 0.677; the Ratio OD(Variant)/OD(WT) is 0.822 and 0.865.

B6: KB001 mouse Fab VL T24G (Fab, V domains shown)
VH: EVQLKQSGPGLVAPSQSLSITCTVSGFSLSIYSVHWVRQPPGKGLEWLGMIWGGGSSDYNSALKSRLSISKDNSKSQVFLKMNSLQTDDTAMYYCARNGNFYAMDYWGQGTSVTVSS
VL: QIVLTQSPAIMSASLGERVTMTCGASSSVSSSFLHWYQQKPGSSPQLWIYSTSNLASGVPARFSGSGSGTSYSLTISSMEAEDAATYYCHQYHHSPYIYTFGGGTKLEIK
In the case of B6, the OD450 nm was 0.686 and 0.735; the Ratio OD(Variant)/OD(WT) was 0.892 and 0.956.

B7: KB001 mouse Fab VL S27V (Fab, V domains shown)
VH: EVQLKQSGPGLVAPSQSLSITCTVSGFSLSIYSVHWVRQPPGKGLEWLGMIWGGGSSDYNSALKSRLSISKDNSKSQVFLKMNSLQTDDTAMYYCARNGNFYAMDYWGQGTSVTVSS
VL: QIVLTQSPAIMSASLGERVTMTCTASVSVSSSFLHWYQQKPGSSPQLWIYSTSNLASGVPARFSGSGSGTSYSLTISSMEAEDAATYYCHQYHHSPYIYTFGGGTKLEIK
For the molecule B7, the OD450 nm was 0.645 and 0.646; the Ratio OD(Variant)/OD(WT) was 0.859 and 0.861.

B8: KB001 mouse Fab VL A25G (Fab, V domains shown)
VH: EVQLKQSGPGLVAPSQSLSITCTVSGFSLSIYSVHWVRQPPGKGLEWLGMIWGGGSSDYNSALKSRLSISKDNSKSQVFLKMNSLQTDDTAMYYCARNGNFYAMDYWGQGTSVTVSS
VL: QIVLTQSPAIMSASLGERVTMTCTGSSSVSSSFLHWYQQKPGSSPQLWIYSTSNLASGVPARFSGSGSGTSYSLTISSMEAEDAATYYCHQYHHSPYIYTFGGGTKLEIK
Turning to B8, the OD450 nm is 0.668 and 0.699 and 0.673; the Ratio OD(Variant)/OD(WT) is 0.853 and 0.893 and 0.86.

B9: KB001 mouse Fab VL A25Y (Fab, V domains shown)
VH: EVQLKQSGPGLVAPSQSLSITCTVSGFSLSIYSVHWVRQPPGKGLEWLGMIWGGGSSDYNSALKSRLSISKDNSKSQVFLKMNSLQTDDTAMYYCARNGNFYAMDYWGQGTSVTVSS
VL: QIVLTQSPAIMSASLGERVTMTCTYSSSVSSSFLHWYQQKPGSSPQLWIYSTSNLASGVPARFSGSGSGTSYSLTISSMEAEDAATYYCHQYHHSPYIYTFGGGTKLEIK
For the molecule B9, the OD450 nm is 0.755 and 0.757; the Ratio OD(Variant)/OD(WT) was 0.964 and 0.967.

B10: KB001 mouse Fab VL A25V (Fab, V domains shown)
VH: EVQLKQSGPGLVAPSQSLSITCTVSGFSLSIYSVHWVRQPPGKGLEWLGMIWGGGSSDYNSALKSRLSISKDNSKSQVFLKMNSLQTDDTAMYYCARNGNFYAMDYWGQGTSVTVSS
VL: QIVLTQSPAIMSASLGERVTMTCTVSSSVSSSFLHWYQQKPGSSPQLWIYSTSNLASGVPARFSGSGSGTSYSLTISSMEAEDAATYYCHQYHHSPYIYTFGGGTKLEIK
For the molecule B10, the OD450 nm amounted to 0.768 and the Ratio OD(Variant)/OD(WT) is 0.981.

B11: KB001 mouse Fab VL T24N (Fab, V domains shown)
VH: EVQLKQSGPGLVAPSQSLSITCTVSGFSLSIYSVHWVRQPPGKGLEWLGMIWGGGSSDYNSALKSRLSISKDNSKSQVFLKMNSLQTDDTAMYYCARNGNFYAMDYWGQGTSVTVSS
VL: QIVLTQSPAIMSASLGERVTMTCNASSSVSSSFLHWYQQKPGSSPQLWIYSTSNLASGVPARFSGSGSGTSYSLTISSMEAEDAATYYCHQYHHSPYIYTFGGGTKLEIK
B11: the OD450 nm was 0.715 and 0.8; the Ratio OD(Variant)/OD(WT) is 0.93 and 1.04.

B12: KB001 mouse Fab VL T24Q (Fab, V domains shown)
VH: EVQLKQSGPGLVAPSQSLSITCTVSGFSLSIYSVHWVRQPPGKGLEWLGMIWGGGSSDYNSALKSRLSISKDNSKSQVFLKMNSLQTDDTAMYYCARNGNFYAMDYWGQGTSVTVSS
VL: QIVLTQSPAIMSASLGERVTMTCQASSSVSSSFLHWYQQKPGSSPQLWIYSTSNLASGVPARFSGSGSGTSYSLTISSMEAEDAATYYCHQYHHSPYIYTFGGGTKLEIK
B12: the OD450 nm was 0.765 and the Ratio OD(Variant)/OD(WT) is 0.995.

B13: KB001 mouse Fab VL S26G (Fab, V domains shown)
VH: EVQLKQSGPGLVAPSQSLSITCTVSGFSLSIYSVHWVRQPPGKGLEWLGMIWGGGSSDYNSALKSRLSISKDNSKSQVFLKMNSLQTDDTAMYYCARNGNFYAMDYWGQGTSVTVSS
VL: QIVLTQSPAIMSASLGERVTMTCTAGSSVSSSFLHWYQQKPGSSPQLWIYSTSNLASGVPARFSGSGSGTSYSLTISSMEAEDAATYYCHQYHHSPYIYTFGGGTKLEIK
As to B13, the OD450 nm was 0.73 and the Ratio OD(Variant)/OD(WT) turned out to be 0.932.

B14: KB001 mouse Fab VL S27H (Fab, V domains shown)
VH: EVQLKQSGPGLVAPSQSLSITCTVSGFSLSIYSVHWVRQPPGKGLEWLGMIWGGGSSDYNSALKSRLSISKDNSKSQVFLKMNSLQTDDTAMYYCARNGNFYAMDYWGQGTSVTVSS
VL: QIVLTQSPAIMSASLGERVTMTCTASHSVSSSFLHWYQQKPGSSPQLWIYSTSNLASGVPARFSGSGSGTSYSLTISSMEAEDAATYYCHQYHHSPYIYTFGGGTKLEIK
B14: the OD450 nm was 0.664 and 0.63 and 0.726; the Ratio OD(Variant)/OD(WT) was 0.885 and 0.839 and 0.967.

B15: KB001 mouse Fab VL S27Y (Fab, V domains shown)
VH: EVQLKQSGPGLVAPSQSLSITCTVSGFSLSIYSVHWVRQPPGKGLEWLGMIWGGGSSDYNSALKSRLSISKDNSKSQVFLKMNSLQTDDTAMYYCARNGNFYAMDYWGQGTSVTVSS
VL: QIVLTQSPAIMSASLGERVTMTCTASYSVSSSFLHWYQQKPGSSPQLWIYSTSNLASGVPARFSGSGSGTSYSLTISSMEAEDAATYYCHQYHHSPYIYTFGGGTKLEIK
For B15, the OD450 nm stood at 0.617 and the Ratio OD(Variant)/OD(WT) was found to be 0.822.

B16: KB001 mouse Fab VL T24N/G67D (Fab, V domains shown)
VH: EVQLKQSGPGLVAPSQSLSITCTVSGFSLSIYSVHWVRQPPGKGLEWLGMIWGGGSSDYNSALKSRLSISKDNSKSQVFLKMNSLQTDDTAMYYCARNGNFYAMDYWGQGTSVTVSS
VL: QIVLTQSPAIMSASLGERVTMTCNASSSVSSSFLHWYQQKPGSSPQLWIYSTSNLASGVPARFSGSDSGTSYSLTISSMEAEDAATYYCHQYHHSPYIYTFGGGTKLEIK
B16: the OD450 nm came to 0.755 and the Ratio OD(Variant)/OD(WT) amounted to 0.982.

B17: KB001 mouse Fab VL S26T (Fab, V domains shown)
VH: EVQLKQSGPGLVAPSQSLSITCTVSGFSLSIYSVHWVRQPPGKGLEWLGMIWGGGSSDYNSALKSRLSISKDNSKSQVFLKMNSLQTDDTAMYYCARNGNFYAMDYWGQGTSVTVSS
VL: QIVLTQSPAIMSASLGERVTMTCTATSSVSSSFLHWYQQKPGSSPQLWIYSTSNLASGVPARFSGSGSGTSYSLTISSMEAEDAATYYCHQYHHSPYIYTFGGGTKLEIK
Regarding B17, the OD450 nm amounted to 0.761 and the Ratio OD(Variant)/OD(WT) came out at 0.972.

B18: KB001 mouse Fab VL A25E (Fab, V domains shown)
VH: EVQLKQSGPGLVAPSQSLSITCTVSGFSLSIYSVHWVRQPPGKGLEWLGMIWGGGSSDYNSALKSRLSISKDNSKSQVFLKMNSLQTDDTAMYYCARNGNFYAMDYWGQGTSVTVSS
VL: QIVLTQSPAIMSASLGERVTMTCTESSSVSSSFLHWYQQKPGSSPQLWIYSTSNLASGVPARFSGSGSGTSYSLTISSMEAEDAATYYCHQYHHSPYIYTFGGGTKLEIK
B18: the OD450 nm was determined as 0.655 and the Ratio OD(Variant)/OD(WT) was found to be 0.837.

B19: KB001 mouse Fab VL T24M (Fab, V domains shown)
VH: EVQLKQSGPGLVAPSQSLSITCTVSGFSLSIYSVHWVRQPPGKGLEWLGMIWGGGSSDYNSALKSRLSISKDNSKSQVFLKMNSLQTDDTAMYYCARNGNFYAMDYWGQGTSVTVSS
VL: QIVLTQSPAIMSASLGERVTMTCMASSSVSSSFLHWYQQKPGSSPQLWIYSTSNLASGVPARFSGSGSGTSYSLTISSMEAEDAATYYCHQYHHSPYIYTFGGGTKLEIK
Regarding B19, the OD450 nm was 0.75 and 0.797; the Ratio OD(Variant)/OD(WT) is 0.975 and 1.04.

These data come from patent US20240400654A1.
